This experiment concerns O-GlcNAcylated proteome. The experiment can be described thus: Quantitative TMT mass spectrometry of enriched O-GlcNAcylated proteome. It counts as cell-based, human. The note with it: co-expression of GFP-Sp1, versus N2(D174N)+C3, n=4. Here is the method:
Purification of GalT1 (Y289L) enzyme and labeling of O-GlcNAcylated proteins with GalNAz were performed according to the procedure of Hsieh-Wilson and co-workers (Thompson, J. W., Griffin, M. E. & Hsieh-Wilson, L. C. Methods for the Detection, Study, and Dynamic Profiling of O-GlcNAc Glycosylation. Methods Enzymol. 2018, 598, 101-135). Briefly, cell samples in 6-well plates or 15-cm dishes were harvested and washed by PBS once. The lysis buffer (PBS with 2% SDS) was added into cell pellets and heated for 5 min at 95° C., followed by the sonication to sheer DNA. Protein concentrations were determined by BCA assay. Cell lysates were reduced and alkylated with 25 mM DTT at 95° C. for 5 min and 50 mM iodoacetamide at room temperature for 1 h respectively. Proteins were precipitated by the methanol/chloroform solution (aqueous phase:CH3OH:CHCl3=4:4:1) and resuspended in 1% SDS, 20 mM HEPES (pH 7.9) buffer with a concentration of 3.75 mg/mL. For 150 μg proteins, H2O (49 μL), 2.5×GalT labeling buffer (80 μL, final concentrations: 50 mM NaCl, 20 mM HEPES, 2% NP-40, pH 7.9), 100 mM MnCl2 (11 μL), 500 μM UDP-GalNAz (10 μL), 2 mg/mL GalT1 (Y289L) (10 μL) were added into cell lysates orderly. […]
For quantitative proteomics, after reaction with Biotin-Alkyne probe, proteins were precipitated and resuspended in 400 μL PBS containing 2% SDS. […]

One molecule from US20240043528A1, “NANOBODY-OGA FUSIONS AND USES THEREOF” (President and Fellows of Harvard College, priority 2020, published 2024) can be followed below.

B1: split OGA (N2+C3): split OGA fragments N2 and C3 without nanobody (protein)
chain 1: MEQKLISEEDLAIAMVQKESQATLEERESELSSNPAASAGASLEPPAAPAPGEDNPAGAGGAAVAGAAGGARRFLCGVVEGFYGRPWVMEQRKELFRRLQKWELNTYLYAPKDDYKHRMFWREMYSVEEAEQLMTLISAAREYEIEFIYAISPGLDITFSNPKEVSTLKRKLDQVSQFGCRSFALLFDDIDHNMCAADKEVFSSFAHAQVSITNEIYQYLGEPETFLFCPTEYCGTFCYPNVSQSPYLRTVGEKLLPGIEVLWTGPKVVSKEIPVESIEEVSKIIKRAPVIWDNIHANDYDQKRLFLGPYKGRSTELIPRLKGVLTNPNCEFEANYVAIHTLATWYKSNMNGVRKDVVMTDSEDSTVSIQIKLENEGSDEDIETDVLYSPQMALKLALTEWLQEFGVPHQYSSR
chain 2: MAYPYDVPDYAAIAEKPLYTAEPVTLEDLQLLADLFYLPYEHGPKGAQMLREFQWLRANSSVVSVNCKGKDSEKIEEWRSRAAKFEEMCGLVMGMFTRLSNCANRTILYDMYSYVWDIKSIMSMVKSFVQWLGCRSHSSAQFLIGDQEPWAFRGGLAGEFQRLLPIDGANDLFFQPP
Take B1: the “global O-GlcNAc proteome versus inactive form” value was “no significant difference from that of the inactive form”.
